Reference: the supplement of paper PMC11502859
Values joined by “and” are separate entries in the source; they are usually repeats but may differ in a detail not shown here. Identical values can stand only once.

Tested on: HEK293T
Test: median enrichment of reporter reads in eGFP-reduced (low/intermediate) vs eGFP-high sorted cells (eGFP-extension fusion abundance) (ratio); higher = stronger loss of eGFP-fusion protein abundance (more destabilising extension)
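Further: lentiviral eGFP-IRES-mCherry reporter pool sorted by FACS 96 h post-transduction, gated on mCherry-high cells, Illumina read counts normalized per million, median across four biological replicates.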

Substance: YGPVGPAAVLHPTPLTPASCCK [WDR13]
- median enrichment: 6.81

Substance: WVDGRNIFINQIESIYKNGSRILPQFFCQKVCIYVCIYIYLYIYMTDVF [GCC2]
- median enrichment: 11.6

Substance: WWWRHAQWMILLLPATSTSRNESLGGCQELVLAPPPP [MAP4K1]
- median enrichment: 13

Substance: RAPPLTEAAPPTAPNKNVKTNPRT [NDUFA3]
- median enrichment: 0.588

Substance: FANCD2
- median enrichment: 5.79 and 4.35

Substance: YVLILPSH [HSPA4L]
- median enrichment: 10.7

Substance: EAKSRCTQHVLGMQPQEVPDLKQPDSYLA [GREM1]
- median enrichment: 0.305

Substance: WETA [FAXDC2]
- median enrichment: 0.459

Substance: SQKHVHFGKQACILPVQYLHSTDGTVWRSTFSYFCESIHVGPVSRICTFVPSTVTANLSV [ARHGEF3]
- median enrichment: 10.6

Substance: HHHHHHHH [His08]
- median enrichment: 0.421

Substance: LTFQDEWFILSNLLLTEQSSEPFNFKLHQLCAEPWCKVLSHSFFLSVEFGAIVSGT [ATAD2B]
- median enrichment: 6.97

Substance: CLGVKAFHGHPCTGYLLVMLQNVSPTLCPSLALLPQSP [TEX35]
- median enrichment: 11.2

Substance: YASHLASWVCRSSRLAPSMYPGEIPARHPPPGPG [LSP1]
- median enrichment: 4.74

Substance: LRRGPGSLRACEEHLLPKNVWFFFLFCFRFSSFEEQREIKRRPPGRGAFSQRLGRFPKSRVPASPAEFTSVPEAAVSSS [BIN1]
- median enrichment: 7.66

Substance: SHVGQIKRQLQK [CTSO]
- median enrichment: 0.527

Substance: KFFRMQPGGTWI [DCAF4L2]
- median enrichment: 2.96

Substance: QRQ [GNB1]
- median enrichment: 0.344

Substance: RALLERLLCHPFAPERGSSQLS [DNPEP]
- median enrichment: 9.53

Substance: WVKEEKPSTP [TAS2R19]
- median enrichment: 0.336

Substance: LVVDVWGI [XRCC5]
- median enrichment: 4.14

Substance: LFLNALPHIFRKSRELLP [OR5AU1]
- median enrichment: 9.77

Substance: WGSCSGGRV [ZNF330]
- median enrichment: 0.598

Substance: RERGLSSSLPAPSSPRPSSLCAW [HOXC10]
- median enrichment: 4.17

Substance: RALVPWQRDEKLQALSPAWAGSGARGCDSSRRVETLGWTGGGQRPAGGAPGMCPDMVNL [VAV1]
- median enrichment: 1.76

Substance: WQP [TP53AIP1]
- median enrichment: 0.544

Substance: SNGSI [PHF20L1]
- median enrichment: 0.369

Substance: WSPLSRDSGKGGFLHPTPLLPWL [KIAA1191]
- median enrichment: 5.6

Substance: GGAAAAWSLRPSRPPSAAPSAAVCVAWASFQLTHGLKNRCFI [TMEM18]
- median enrichment: 5.44

Substance: RGLLALTLQPTLAVWPSPGSFPAPLPLFPVLLNSPSWRVQALGMGGTRPHSFHRALRPDTADQPHSAQEAASGVGAQRGTAAS [BAP1]
- median enrichment: 2.63

Substance: GVWLSHGIPGKGLTQ [PTPA]
- median enrichment: 2.08

Substance: QSMF [TMEM196]
- median enrichment: 0.507

Substance: HHH [His03]
- median enrichment: 0.477

Substance: NLYSLESMSCVYSTIRNLILFLLLFLQKQKLILKSIIMGWGGGCPQDMQDFCRGQHRFWDCEAVSEGGQAVWMAGLMLFRIKC [SETD4]
- median enrichment: 13.5

Substance: LELLCFDS [MAP4K3]
- median enrichment: 2.88

Substance: LPRPQPGPRTSGHRWHQPLLQDHQSGAPRTLACVP [GSG1L]
- median enrichment: 17.3

Substance: IIIIIIIII [Ile09]
- median enrichment: 9.46

Substance: QEKAIWDLITLNRHANTVCVRALCIQ [PCDH9]
- median enrichment: 6.25

Substance: QEGPGGPAVLSPAPLGGVW [GALNT2]
- median enrichment: 0.738

Substance: LNFNKTFKITEIFKI [LIAS]
- median enrichment: 9.41

Substance: SDQAVLEDRQIYTPHTHTTYTTHTRSHPLTHTLHRLLPYSWTFI [BMP4]
- median enrichment: 9.46

Substance: RILPNALSENAELPFLFASFIFNIHNVVCLKVGFEVCAAYSFHLSPRFPSL [RRAGA]
- median enrichment: 15.7

Substance: LPVGCFTSTPAPPASNAHSTPNTTPCPTNAHSRAW [C1QB]
- median enrichment: 1.02

Substance: YCPRAHRQLQGALVANKQHL [RAB3C]
- median enrichment: 2.13

Substance: SVCAGDQINRLGCAK [NOSIP]
- median enrichment: 1.17

Substance: LIPVDPQGLAKARDTQREMLVIPLENLASNFLYV [KRT38]
- median enrichment: 39.9

Substance: YFNLCNLTNFHDK [NUP107]
- median enrichment: 9.37

Substance: RAGPAPCPRSPLLSRPHPPPARPTRGATPPFESLAVGWTLPFPEAA [C1QL4]
- median enrichment: 13.1

Substance: LGSWRHWRGQEG [Degron KLHDC3]
- median enrichment: 8.96

Substance: SGGV [DHRS2]
- median enrichment: 0.226

Substance: KILNLVCRPSRGIKRLALVVKNKADSQTRSDFCPCSSFDVLSVALFLIASSTCKMLFTFCLG [DAB2]
- median enrichment: 18.3

Substance: CCCCCC [Cys06]
- median enrichment: 12.4

Substance: LLLPLGFTSQTQPLEQPDPAE [CHAT]
- median enrichment: 6.49

Substance: YPGGRVAAGGACAEAS [SLC7A5]
- median enrichment: 1.04

Substance: CMNEWVCWVGEGPGEGSGTEGMPGSLLPTASTDQQGLGQGGHPGGRGRLPPCLPAGGPRRRAGRVHVCGCPGDPGCLPCLPRP [TMEM91]
- median enrichment: 4.17

Substance: RTILELTRFVCL [KRTAP20-1]
- median enrichment: 7.89

Substance: CACPHPPSSLPSC [PADI1]
- median enrichment: 0.421

Substance: QAPTLLLLALLPASVQRTGRYWWEALCLAPQLPVWASKHNGPSRSLVETGVVVPNLPSALPLHRTQRPQALQGVLVPAFPRTS [AMIGO3]
- median enrichment: 1.8

Substance: CEGQTPEEPLQ [CXCL12]
- median enrichment: 0.136

Substance: SGASQRSAHADNKVALSLE [FIBP]
- median enrichment: 0.209

Substance: LRISQG [ESRRB]
- median enrichment: 1.67

Substance: FGHSRTGERQLYFSLGQLQRVGQALMGSDCQSDAVGPRQRKAGRRGARTFSPHCPFPFSGEHRRLLTPTSCEAVAYGVQRSWS [C16orf58]
- median enrichment: 4.42

Substance: GHSPLLVPH [TP53]
- median enrichment: 0.449

Substance: LVLIPTFPCDLGCRCSCCKMEANLTGVL [ADD2]
- median enrichment: 2.88

Substance: SMSSDWRIRKIYGPTFDAIF [ZCCHC4]
- median enrichment: 8.58

Substance: QYLTGHHRILWIFFPSFWFWFRANSCFIGTVYEAFETKNNEE [GALC]
- median enrichment: 6.16

Substance: LRMKQLLSGPALPHSCASSALLSSQT [LCN12]
- median enrichment: 30.4

Substance: YSQRGGQSQSQLLSCPLLPARALVLTPSCIPHLRSVY [SLC2A11]
- median enrichment: 11.1

Substance: YPAHLASLFSF [ECD]
- median enrichment: 2.85

Substance: WSQFPVTRTILATLFESIQVVWPMILLLTYLSTSSGPCPFGKLSFFLLHWGTGC [CLEC5A]
- median enrichment: 9.24

Substance: RVFLGIVFCSCFSVLGMGPGPDTPSPPLWPWPLKLQTQVPILFSPSNAPPNLQPPCLQLPGPGRALVPSLGLIFSLNSTDQLP [JUP]
- median enrichment: 7.92

Substance: WLTLSLCCLLLS [SIRPB1]
- median enrichment: 18.9

Substance: VSHAYAHAQPPSGSLESRADTHSHTHCLAKNTPCLPCHSPHSHSLSPDPCLSLDCRGTTHLFGIQGPQPTVPSPINCSRAPHK [FOXP3]
- median enrichment: 2.58

Substance: LRASPRRDGKKIYKYISF [CYP2U1]
- median enrichment: 7.5

Substance: YISHQKLRQEKQK [RASSF8]
- median enrichment: 3.3

Substance: LRSRRDEAASPFSASPPAQGPSGGACRTCPGTVAPQACLSCRVPMAWSLHLTDWSPLPDSHFQKLGGRDTWKTPVTSFLLRA [DPM2]
- median enrichment: 4.89

Substance: LLLLLLL [Leu07]
- median enrichment: 12.7

Substance: YFFLELKHPRMPLHVFHSPHLQTSLLFLTRPESKLPSLGNSGEGVSCTTYHTPSHPVSDFGMDSGKLGPSLNRVMYLNVCYFQ [HSPA1L]
- median enrichment: 10.9

Substance: QCR [CCDC73]
- median enrichment: 0.362

Substance: YLL [TOR1AIP2]
- median enrichment: 3.21

Substance: YALDKNLNRKNNSKAYLMKQ [CYLC2]
- median enrichment: 2.34

Substance: SYCSMDIK [KDM6A]
- median enrichment: 1.22

Substance: SPIQKFFLILFHLPISC [TRIO]
- median enrichment: 7.34

Substance: QKGRAQQCK [IRX2]
- median enrichment: 1.1

Substance: YDSPGLKLGSRPAR [PTGDS]
- median enrichment: 3.48

Substance: RWCWGLGRGGELGCQNSMDMFLWMEGRAFVTFCTYSFCGCFDKGMARELVSIISFILFWL [BCO1]
- median enrichment: 16

Substance: RRRRRRRRRR [Arg10]
- median enrichment: 0.77
